Several values for one entry are separate records, joined by “and”; a condition that tells them apart may be missing. Equal values may be shown once. Each block holds one substance with its values, some of them ahead of it.
What was measured:
[1] = target: G29K/A30K(3xK)-APP695wt; assay: SDS-PAGE and Western blot (SDS-stable dimer); CHO cells lysed in RIPA buffer (0.1% SDS); 3-8% Tris-Acetate gel; blot probed with anti-APP C-terminal antibody A8717
[2] = target: recombinant 3xK-C100Flag; assay: SDS-PAGE, Coomassie stain and Western blot (SDS-stable multimers); recombinant protein run on 4-12% Bis-Tris gels; monomer, dimer and trimer bands cut out, eluted in 150 mM sodium citrate pH 6.8 and rerun; Coomassie stain and blot (6E10, Ab5)
[3] = target: recombinant WT-C100Flag; assay: as above

Sequence of recombinant WT-C100Flag (P05067 18-701): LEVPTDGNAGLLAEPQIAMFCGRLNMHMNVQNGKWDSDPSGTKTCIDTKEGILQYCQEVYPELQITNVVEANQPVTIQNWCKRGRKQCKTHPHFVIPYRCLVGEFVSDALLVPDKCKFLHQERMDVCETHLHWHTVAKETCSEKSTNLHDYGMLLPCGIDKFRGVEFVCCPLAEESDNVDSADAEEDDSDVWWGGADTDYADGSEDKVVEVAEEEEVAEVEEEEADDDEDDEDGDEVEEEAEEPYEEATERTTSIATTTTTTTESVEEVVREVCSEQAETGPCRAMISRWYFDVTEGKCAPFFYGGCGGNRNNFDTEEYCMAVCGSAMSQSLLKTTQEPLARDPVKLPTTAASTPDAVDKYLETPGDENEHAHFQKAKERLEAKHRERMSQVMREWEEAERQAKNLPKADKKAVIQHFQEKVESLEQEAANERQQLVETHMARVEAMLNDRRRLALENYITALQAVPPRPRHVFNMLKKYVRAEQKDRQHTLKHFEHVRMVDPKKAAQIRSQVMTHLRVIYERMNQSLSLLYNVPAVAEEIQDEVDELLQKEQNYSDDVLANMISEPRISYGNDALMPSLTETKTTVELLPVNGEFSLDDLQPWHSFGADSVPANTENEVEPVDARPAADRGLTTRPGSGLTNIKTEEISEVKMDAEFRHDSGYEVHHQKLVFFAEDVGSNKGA

stoichiometry N [1]: 2
Substance: G29K/A30K(3xK)-APP695wt (natural protein)

stoichiometry N [2]: 2 and 3
Substance: recombinant 3xK-C100Flag (domain or fragment)

stoichiometry N [3]: 2 and 3
Substance: recombinant WT-C100Flag (domain or fragment)
